Reference: paper PMC10966353

Target: A/Puerto Rico/8/1934 hemagglutinin with an N-terminal sfGFP, GCN4-pII trimerization motif and Strep-tag II (influenza A virus A/Puerto Rico/8/1934)
Assay: negative stain electron microscopy

A/Puerto Rico/8/1934 hemagglutinin with an N-terminal sfGFP, GCN4-pII trimerization motif and Strep-tag II
stoichiometry N: 3
